Measured values taken from patent publication US20150079112A1 (SAMSUNG ELECTRONICS, published 2015).

Columns and labels:
[1] = target: T1, mutant Ang2 protein, Q418 substituted with alanine, FLAG-tagged at its N-terminal (human, UniProt O15123 19-496, limits assumed); assay: ELISA, coated antibody 1000 nM, 250 ng FLAG-tagged mutant Ang2, anti-FLAG-HRP, OD450
T1 sequence: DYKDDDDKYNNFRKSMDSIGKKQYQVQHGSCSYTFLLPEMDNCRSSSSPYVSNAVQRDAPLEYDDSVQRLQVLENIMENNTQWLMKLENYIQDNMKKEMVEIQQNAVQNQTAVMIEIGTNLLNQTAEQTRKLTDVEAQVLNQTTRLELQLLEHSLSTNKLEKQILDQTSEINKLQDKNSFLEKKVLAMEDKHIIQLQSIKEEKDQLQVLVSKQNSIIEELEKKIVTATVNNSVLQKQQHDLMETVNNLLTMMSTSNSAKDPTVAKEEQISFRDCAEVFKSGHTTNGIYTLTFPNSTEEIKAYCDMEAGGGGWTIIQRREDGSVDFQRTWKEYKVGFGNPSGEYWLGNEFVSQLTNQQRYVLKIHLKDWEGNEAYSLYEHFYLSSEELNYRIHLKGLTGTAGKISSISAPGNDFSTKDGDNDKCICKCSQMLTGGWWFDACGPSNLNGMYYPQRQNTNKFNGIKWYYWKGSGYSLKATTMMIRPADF
Method: Each well of a 96-well MaxiSorp™ flat-bottom plate (Nunc) was coated with 50 ul (microliter) of 1000 nM antibody. Then, the plate was washed five times with 0.05% (v/v) Tween-20-containing PBS (PBST) and blocked with 1% (v/v) BSA-containing PBS at a room temperature for 2 hours. 250 ng of each mutant Ang2 protein obtained by substituting S417, Q418, P419, N421, I434, D448, A449, P452, Y460, N467, K468, or F469 residue of Ang2 protein tagged with a FLAG sequence ([…], Sigma) at its N-terminal with alanine was added to each well of the plate, which was then allowed to react at a room temperature for 2 hours.
The plate was washed five times with 0.05% (v/v) Tween-20 containing PBS, reacted with an anti-FLAG antibody (SIGMA) conjugated with HRP which was diluted in 1% (v/v) BSA-containing PBS at a ratio of 1:5,000 (v/v) at a room temperature for 1 hour, and washed five times with 0.1% (v/v) Tween-20-containing PBS.
Finally, 50 ul of TMB substrates (Cell signaling) was added to each well of the plate to induce color development at a room temperature for 3 min. and the reaction was ceased by the addition of 50 ul of Stop solution (Cell signaling) and then, OD450 values were measured on a plate reader (Molecular Devices). By comparing binding affinities with mutated Ang2 to those of unmutated Ang2, each epitope of Ang2 antibodies was identified. The thus obtained measurement results of the binding affinities (%) with mutant Ang2 against the binding affinity with the native Ang2 are shown in the following Table 8.

[2] = target: T2, Ang2 protein (R&D systems) (human, UniProt O15123 19-496); assay: cell-based or functional assay
T2 sequence: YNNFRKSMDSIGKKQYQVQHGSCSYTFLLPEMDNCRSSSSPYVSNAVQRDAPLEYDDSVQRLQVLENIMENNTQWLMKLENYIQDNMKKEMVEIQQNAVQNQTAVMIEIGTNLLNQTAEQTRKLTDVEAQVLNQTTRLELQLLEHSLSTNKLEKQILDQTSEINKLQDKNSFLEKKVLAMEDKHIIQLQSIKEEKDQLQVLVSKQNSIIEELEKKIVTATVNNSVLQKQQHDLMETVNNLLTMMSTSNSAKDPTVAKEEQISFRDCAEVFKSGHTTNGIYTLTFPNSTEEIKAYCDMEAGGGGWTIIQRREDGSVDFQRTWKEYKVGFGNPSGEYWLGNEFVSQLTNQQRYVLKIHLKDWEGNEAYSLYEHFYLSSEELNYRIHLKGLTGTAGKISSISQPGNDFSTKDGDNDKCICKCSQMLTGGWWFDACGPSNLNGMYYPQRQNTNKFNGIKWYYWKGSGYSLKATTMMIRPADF

[3] = target: T3, recombinant hAng2 (C-His, R&D Systems) (human, UniProt O15123 19-496); assay: SPR, BIAcore T100; hAng2 (C-His) captured on anti-His antibody on a CM5 chip, antibody flowed from 100 nM in twofold dilutions
T3 construct: also called human Ang2 protein
T3 sequence: T2 sequence
Method: The binding affinity of the above antibody to human Ang2 protein was measured by an SPR method using a BIAcore T100 (GE Healthcare). The SPR method uses refractive index change of light which passes a sensor chip according to the state of materials coated onto the sensor chip, and if an antigen or an antibody is flowed onto a chip coated with the antigen or antibody, it causes changes in refractive index due to their binding and Kd values are thus calculated from the measured values.
First, anti-His antibody was immobilized on a CM5 sensor chip (GE healthcare) up to 8,000 RU levels using a pH 5.0 acetate solution and an amine coupling kit (GE Healthcare). 6 μg/ml of a recombinant hAng2 (C-His, R&D Systems) protein was flowed onto the chip to be captured at 100 to 200 RU levels.

[4] = target: T4, hTie2-Fc (R&D Systems) (human, UniProt Q02763 23-745); assay: ELISA: coated Tie2-Fc, 10D6 2 µg/ml without Ang2, detected with anti-mouse IgG-HRP (OD450)
T4 construct: also called hTie-2/Fc fusion protein; not shown: Fc of human IgG1
Method: A 96-well MaxiSorp™ flat-bottom plate (Nunc) was coated with 4 ug/ml of Tie2-Fc (R&D systems) or BSA (Sigma). Then, the plate was washed five times with 0.05% (v/v) Tween-20-containing PBS (Phosphate Buffer Saline) and blocked with 1% (v/v) BSA (Bovine serum albumin; Sigma)-containing PBS at a room temperature for 2 hours. […] After that, an anti-mouse IgG antibody (Sigma) conjugated with HRP diluted in 1% (v/v) BSA-containing PBS at a ratio of 1:5,000 (v/v) was added in an amount of 100 ul to each well to react at a room temperature for 1 hour and then, the plate was washed five times with PBST. Lastly, 100 ul (microliter) of TMB substrate (Cell Signaling) was added to each well of the plate to induce color development for 3 min. and then, the reaction was ceased by the addition of 100 ul of Stop solution (Cell Signaling) and OD450 values were measured on a plate reader (Molecular Devices).

T4 sequence (Q02763 23-745 limits assumed): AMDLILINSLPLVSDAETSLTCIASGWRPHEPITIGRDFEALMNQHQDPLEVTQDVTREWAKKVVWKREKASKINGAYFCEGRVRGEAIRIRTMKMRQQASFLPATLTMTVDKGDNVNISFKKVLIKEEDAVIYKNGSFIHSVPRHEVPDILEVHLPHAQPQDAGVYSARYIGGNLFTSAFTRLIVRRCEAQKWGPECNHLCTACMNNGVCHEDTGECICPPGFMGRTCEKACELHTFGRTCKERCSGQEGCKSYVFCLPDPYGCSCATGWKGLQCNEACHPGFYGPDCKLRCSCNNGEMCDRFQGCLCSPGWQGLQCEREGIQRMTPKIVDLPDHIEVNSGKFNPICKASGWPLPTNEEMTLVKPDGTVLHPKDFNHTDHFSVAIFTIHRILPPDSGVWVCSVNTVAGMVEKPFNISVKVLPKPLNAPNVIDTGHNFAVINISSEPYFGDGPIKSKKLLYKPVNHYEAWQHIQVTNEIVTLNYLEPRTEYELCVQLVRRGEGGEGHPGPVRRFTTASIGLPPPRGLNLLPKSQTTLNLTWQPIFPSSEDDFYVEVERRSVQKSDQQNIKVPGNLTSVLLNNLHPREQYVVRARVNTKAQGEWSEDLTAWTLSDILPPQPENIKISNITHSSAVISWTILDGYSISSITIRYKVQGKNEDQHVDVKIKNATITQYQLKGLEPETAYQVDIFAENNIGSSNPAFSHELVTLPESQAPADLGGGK

B1: SAIT-ANG2-AB-m10D6 (antibody, V domains shown)
VH: DVQLQESGPGLVKPSQSLSLTCTVTGYSITSDYAWNWIRQFPGNKLEWMGYINYSGNTDYNPSLKSRSSITRDTSKNQFFLQLNSVTTGDTATYYCARGNFEGAMDYWGQGTSVTVSS
VL: SIVMTQTPKFLLVSAGDRVTITCKASQSVSNDVAWYQQKPGQSPKLLIYYASNRYPGVPDRFTGSGYGTDFTFTISTVQAEDLAVYFCQQDYSSPWTFGGGTKLEIK
notes: also called antibody 10D6; anti-Ang2 antibody (10D6)
binding affinity (%) with mutant Ang2 against the binding affinity with the native Ang2 [1]: 38.9% | Tie2 phosphorylation effect relative to control antibody RG [2]: ~8.6 fold | Tie2 phosphorylation level (pTyr/Tie2 ratio), HUVEC, 60 nM antibody with Ang2 [2]: 180% | Kd [3]: 8 nM | binding result [4]: no binding (tested: 2 µg/ml)
